Where “and” joins values, the source holds several entries; their conditions need not be identical. Equal entries are not always repeated.
Columns and labels:
[1] = Whole-cell biotransformation of muconic acid by E. coli expressing EREDs; assay type: cell-based; settings: 0.7 mM, 24-hr incubation
Method: After a 24-hr incubation, no muconic acid or 2-hexenedioic acid were detected in the culture, and a 99% yield of adipic acid was obtained (FIGS. 8a, 8b, and 8c). […] The 3-hexenedioic acid-like compound appears to be an inefficient substrate for these EREDS. This is similar to the mutated 2,4-dienoyl-CoA reductases from E. coli, which catalyze hydrogenation of 2,4-dienoyl CoA into 3-enoyl CoA (Tu, X., Hubbard, P. A., Kim, J. J. P. & Schulz, H. Two distinct proton donors at the active site of Escherichia coli 2,4-dienoyl-CoA reductase are responsible for the formation of different products. Biochemistry 47, 1167-1175 (2008).).

[2] = In vitro reductase activity of purified EREDs, NADH oxidation at 340 nm; assay type: biochemical
Method: (§1) The C═C reducing activity of EREDs was examined. Enzyme activity of purified EREDs was measured spectrophotometrically in 96-well plates by following incubation for 3-5 min at 30° C. in the anaerobic chamber as described in M. Buhler, H. Simon, Hoppe-Seyler's Zeitschrift fur Physiologische Chemie 1982, 363, 609-625. Buffers and reagents were degassed and sparged with Ar. Reaction mixture contained potassium phosphate (100 mM and pH 7.0), NADH (0.5 mM), indicated substrates, and proteins (0.1-50 μg) in a final volume of 200 μL. Enzyme reactions were monitored by following the decrease in absorbance at 340 nm (ε340 nm=6,220/M·cm) due to oxidation of NADH to NAD+.
(§2) For in vitro biochemical characterization, enzyme activities of purified EREDs were measured with 2-hexenedioic acid, cis-cis-muconic acid, trans-trans muconic acid, trans-cinnamic acid, trans-2-methyl-2-butenoic acid, trans-2-butenoic acid, acrolein, 2-cyclohexen-1-one, and 3-methyl-2-cyclohexenone. […] [Feng, J. et al. Discovery and Characterization of BlsE, a Radical S-Adenosyl-L-methionine Decarboxylase Involved in the Blasticidin S Biosynthetic Pathway. PLoS ONE 8 (2013)].

[3] = Oxygen tolerance (residual activity) of purified EREDs on storage; assay type: physicochemical; settings: for retained initial activity, storage in the absence of oxygen / retained initial activity, storage in the presence of air: three days; for retained initial activity, storage in the absence of oxygen: 4° C.
Method: Purified EREDs were placed in 5 mL glass tubes tightly capped with air-tight rubber stoppers. Anaerobic tubes were filled with anaerobic gas mixture (80% N2, 10% H2, and 10% CO2) and aerobic tubes were filled with atmospheric air. The tubes were kept on ice for a week and a small aliquots of EREDs (5 ul) were withdrawn by a syringe every day to measure residual activity in a reaction mixture containing 100 mM potassium phosphate buffer (pH 7.0), 0.5 mM NADH, indicated substrates (0.25 mM 2-hexenedioic acid for EREDBC and 0.75 mM cinnamic acid for EREDCA, and protein (1 μg) in a final volume of 200 μL.

[4] = In vitro reductase activity of purified EREDs, NADH oxidation at 340 nm; assay type: biochemical; settings: for activity against 2-hexenedioic acid: purified enzyme, anaerobic, NADH, aqueous buffer
Method: as §1, §2
To increase the dissolved substrate concentration, 2-hexenedioic acid was dissolved in a reaction mixture containing […] (final concentration) isopropanol, and kinetic constants of EREDBC and EREDCA were determined.

[5] = In vivo whole cell biotransformation by E. coli expressing CARs; assay type: cell-based; settings: 24 h
Method: E. coli cells expressing recombinant CARs with BSU03570 phosphopantetheinyl transferase were grown on LB media with […], supplemented with 2% glycerol aerobically on 37° C., until the culture optical density (OD 600 nm) reached 0.6-0.8. At this point protein expression was induced with 0.4 mM IPTG and substrate (adipic acid or 4-hydroxybutyric acid) for final 10 mM concentration was added. Samples were taken at 6 h, 24 h and 48 h, centrifuged, supernatant was filtered through 10 kDa centrifugal filters. Products were analyzed with HPLC or LC-MS. Negative control experiments were performed using E. coli cells harboring empty plasmids. All results of in vivo experiments are means from at least two independent determinations.

[6] = CAR reductase activity, NADPH oxidation at 340 nm; assay type: biochemical; settings: ND = no activity was detected
Method: Reductase activity was measured spectrophotometrically by following the oxidation of NADPH depletion at 340 nm.
It has been shown that the N. iowensis CAR has a broad substrate range, though its maximal activity was usually observed with aromatic substrates such as benzoic and cinnamic acids. CARs gene sequences homologues to the N. iowensis CAR (Uniprot number: Q6RKB1), were selected from GenBank database. Based on presence of adenylation (AMP-binding PF00501) and reduction (NAD-binding PF07993) domains accompanied with phosphopantetheinyl binding motif (PF00530) 13 CAR genes (mostly from Mycobacterium) were cloned and expressed in E. coli. (Table 4). As CAR activation enzymes, phosphopantetheinyl transferases (PPTs) from E. coli (P19925) and Bacillus subtilis (P39135), were used which were co-expressed with the selected CAR genes from a separate plasmid. Using 1-liter E. coli cultures with overnight induction by IPTG, 12 soluble CAR proteins were purified using affinity chromatography on a Ni-NTA resin.

[7] = In vitro biotransformation by CARs coupled with aldehyde reductase PP_3370; assay type: biochemical; settings: Table 12 title: 10 mM 4-hydroxybutyric acid (12 h) in vitro, CARs coupled with PP3370
[8] = as above; assay type: biochemical; settings: Table 12 title: 10 mM adipic acid (12 h) in vitro, CARs coupled with PP3370
[9] = purified enzyme, anaerobic, NADH

B1: EREDCA: 2-enoate reductase (ERED) from Clostridium acetobutylicum DSM 1731 (protein)
chain: MNKYKKLFEPIKIGKCEIKNRFALAPMGPLGLADSEGGFNQRGIDYYTERAKGGTGLIITGVTFVDNEVEEHGMPNCPCPTHNPVQFVRTGREMTERIHAYNSKVFLQMSGGFGRVTIPTNLGEFPPVAPSPIQHRWLDKTCRELTVDEIKSIVKKFGEGAFNAKRAGFDGVQIHAVHEGYLIDQFAISLFNHRTDEYGGSLENRLRFAREIVEEIKNRCGEDFPVTLRYSPKSFIKDLRDGALPGEEFVEKGRDLDEGVEAAKLLVSYGYDALDTDVGSYDSWWWSHPPMYQEKGLYRKYAKLMKDTVDVPVICAGRMDDPDMALEAVENGTCDVISLGRPLLADPDYVNKLRSNKCKSIRPCISCQEGCMGRVQHYSMLNCAVNPQACKERANSLTPIIKSKKVLIVGGGVAGCEAARVLALRGHEPVLYEKSNRLGGNLIPGGAPSFKEDDIALADWYTNTLKELNVEVNLNSEVTKEQILNSKFDTVIVATGSTPKVFPLGDDEKVFTAAEVLLGQKDPGETTVVVGGGLVGCELALDLAKKGKKVTIVEALNKILALNGPLCSANSEMLQKLIPFNGIDVKANSKVKGYKNGLLKMETENGIEELPCDSVILSVGYKEENSLYKELEFEIPEIYLLGDARKVSNIMYGIWDAFEVANHI
In the case of B1, the “yield of adipic acid from cis,cis-muconic acid” value [1] is reported as 99%, the “yield of adipic acid from trans,trans-muconic acid” value [1] is reported as 99% and the “activity against trans-2-butenoic acid” value [2, 9] is reported as 0.008 U/mg protein. For the same molecule, the “activity against trans-cinnamic acid” value [2, 9] was 3.5 U/mg protein, the “residual activity, storage in the presence of air” value ([3]; one day, air (21% oxygen)) was 30% and the “retained initial activity, storage in the absence of oxygen” value [3] was 19%. The “retained initial activity, storage in the presence of air” value ([3]; air (21% oxygen)) was “completely inactivated” and the “activity against 2-hexenedioic acid” value [4] was “up to 0.05 U/mg protein”.

B2: EREDBC: 2-enoate reductase (ERED) from Bacillus coagulans 36D1 (protein)
chain: MKYKKLFETVKIRNVELKNRYAMAPMGPLGLADAEGGFNQRGIEYYTARARGGTALIITGVTFVDNEVEEHGMPNVPCPTHNPVHFVRTSKEMTERIHAYDSKIFLQMSAGFGRVTIPTNLGEYPPVAPSPIPHRWLDKTCRELTVEEIHSIVRKFGDGAFNAKRAGFDGVQIHAVHEGYLLDQFAIAFFNKRTDAYGGPLENRLRFAREIVEEIKQRCGEDFPVTLRFSPKSFIKDWREGALPGEEFEEKGRDLDEGIEAAKLLVSYGYDALDVDVGSYDSWWWSHPPMYQKKGLYIPYARLVKEAVDVPVLCAGRMDNPDLALAALEDGACDIISLGRPLLADPDYVNKLRIGQVADIRPCLSCHEGCMGRIQEYSSLGCAVNPAACREKEAALTPALKKKRVLIAGGGVAGCEAARVLALRGHEPVIFEKSNRLGGNLIPGGAPDFKEDDLALVAWYEHTLERLGVEIHLNTALTKEEILAANVDAVLIATGSNPKILPLDGKNKVFTAEDVLLDKVDAGQHVVIVGGGLVGCELALNLAEKGKDVSLVEMQDKLLAVNGPLCHANSDMLERLVPFKGVQVYTSSKIVDTTEKTAVVDVDGELREIEADSIVLAVGYSAEKSLYEDLKFEVADLHVVGDARKVANIMYAIWDAYEVAANL
For B2, the “yield of adipic acid from cis,cis-muconic acid” value [1] was 99%, the “yield of adipic acid from trans,trans-muconic acid” value [1] was 99% and the “Activity [U/mg protein] trans-Cinnamic acid [1.0 mM]” value ([2]; 1.0 mM, titrated with 1N NaOH) was 0.39 ± 0.001 U/mg protein. The “Activity [U/mg protein] Acrolein [15 mM]” value ([2]; 15 mM) was 0.036 ± 0.005 U/mg protein, the “Activity [U/mg protein] trans-2-Butenoic acid [50 mM]” value ([2]; 50 mM) was 0.037 ± 0.010 U/mg protein and the “Activity [U/mg protein] 2-Cyclohexen-1-one [200 mM]” value ([2]; 200 mM) was 0.08 ± 0.03 U/mg protein. For the same molecule, the “Activity [U/mg protein] 3-Methyl-2-cyclohexenone [200 mM]” value ([2]; 200 mM) was 0.13 ± 0.03 U/mg protein, the “activity against 2-cyclohexen-1-one” value [2, 9] was 0.08 U/mg protein and the “activity against 3-methyl-2-cyclohexenone” value [2, 9] was 0.13 U/mg protein. For the same molecule, the activity against acrolein [2, 9] was 0.037 U/mg protein, the “activity against trans-2-butenoic acid” value [2, 9] was 0.036 U/mg protein and the “activity against trans-cinnamic acid” value [2, 9] was 0.39 U/mg protein. The “retained initial activity, storage in the absence of oxygen” value [3] was 35%, the “retained initial activity, storage in the presence of air” value ([3]; air (21% oxygen)) was 33% and the “Activity [U/mg protein] 2-Hexenedioic acid [29 mM]” value ([4]; 29 mM, dissolved in aqueous buffer) was 0.09 ± 0.02 U/mg protein. The “Activity [U/mg protein] 2-Hexenedioic acid [35 mM]” value ([4]; 35 mM, dissolved in 0.25 mM isopropanol) was 2.3 ± 0.04 U/mg protein and the “activity against 2-hexenedioic acid” value [4] was 0.09 U/mg protein.

B3: MSMEG_5739: carboxylate reductase (CAR) from M. smegmatis ATCC 700084 (protein)
chain: MTSDVHDATDGVTETALDDEQSTRRIAELYATDPEFAAAAPLPAVVDAAHKPGLRLAEILQTLFTGYGDRPALGYRARELATDEGGRTVTRLLPRFDTLTYAQVWSRVQAVAAALRHNFAQPIYPGDAVATIGFASPDYLTLDLVCAYLGLVSVPLQHNAPVSRLAPILAEVEPRILTVSAEYLDLAVESVRDVNSVSQLVVFDHHPEVDDHRDALARAREQLAGKGIAVTTLDAIADEGAGLPAEPIYTADHDQRLAMILYTSGSTGAPKGAMYTEAMVARLWTMSFITGDPTPVINVNFMPLNHLGGRIPISTAVQNGGTSYFVPESDMSTLFEDLALVRPTELGLVPRVADMLYQHHLATVDRLVTQGADELTAEKQAGAELREQVLGGRVITGFVSTAPLAAEMRAFLDITLGAHIVDGYGLTETGAVTRDGVIVRPPVIDYKLIDVPELGYFSTDKPYPRGELLVRSQTLTPGYYKRPEVTASVFDRDGYYHTGDVMAETAPDHLVYVDRRNNVLKLAQGEFVAVANLEAVFSGAALVRQIFVYGNSERSFLLAVVVPTPEALEQYDPAALKAALADSLQRTARDAELQSYEVPADFIVETEPFSAANGLLSGVGKLLRPNLKDRYGQRLEQMYADIAATQANQLRELRRAAATQPVIDTLTQAAATILGTGSEVASDAHFTDLGGDSLSALTLSNLLSDFFGFEVPVGTIVNPATNLAQLAQHIEAQRTAGDRRPSFTTVHGADATEIRASELTLDKFIDAETLRAAPGLPKVTTEPRTVLLSGANGWLGRFLTLQWLERLAPVGGTLITIVRGRDDAAARARLTQAYDTDPELSRRFAELADRHLRVVAGDIGDPNLGLTPEIWHRLAAEVDLVVHPAALVNHVLPYRQLFGPNVVGTAEVIKLALTERIKPVTYLSTVSVAMGIPDFEEDGDIRTVSPVRPLDGGYANGYGNSKWAGEVLLREAHDLCGLPVATFRSDMILAHPRYRGQVNVPDMFTRLLLSLLITGVAPRSFYIGDGERPRAHYPGLTVDFVAEAVTTLGAQQREGYVSYDVMNPHDDGISLDVFVDWLIRAGHPIDRVDDYDDWVRRFETALTALPEKRRAQTVLPLLHAFRAPQAPLRGAPEPTEVFHAAVRTAKVGPGDIPHLDEALIDKYIRDLREFGLI
With B3 the “In vivo conversion efficiency (%) to: 1,4-butanediol” value ([5]; 10 mM 4-hydroxybutyric acid) was 86.1±5.2%, the “In vivo conversion efficiency (%) to: 1,6-hexanediol” value ([5]; 10 mM adipic acid) was 53.8±1.4% and 57.2 ± 0.6% and the “In vivo conversion efficiency (%) to: 6-hydroxyhexanoic acid” value ([5]; 10 mM adipic acid) was 9.1% and 9.1 ± 0.7%. For the same molecule, the “Activity [U/mg protein] 4-hydroxybutyric acid, 5 mM” value [6] was 0.032 ± 0.024 U/mg protein, the “Activity [U/mg protein] adipic acid, 5 mM” value [6] was 0.054 ± 0.004 U/mg protein and the “In vivo conversion efficiency (%) to: 1,4-butanediol” value [7] was 86.1 ± 5.2%. For the same molecule, the “In vitro conversion efficiency % to: 1,6-hexanediol” value [8] was 57.2 ± 0.6% and the “In vitro conversion efficiency % to: 6-hydroxyhexanoic acid” value [8] was 9.1 ± 0.7%.
